pKd: −log10 of the molar value. Each block holds one substance with its values, some of them ahead of it.
Tests used:
Test in all cases: SPR
[1] = biological target: anti-Aβ hIgG4 YEY (human)
[2] = biological target: anti-BACE1 hIgG1 M252Y / Q311A / N434Y / Y436I (human)
[3] = biological target: anti-BACE1 hIgG1 M252Y / Q311I / N434Y / Y436I (human)
[4] = biological target: anti-BACE1 hIgG1 M252Y / T307Q / Q311A / N434Y (human)
[5] = biological target: anti-BACE1 hIgG1 M252Y / V308P / N434Y (human)
[6] = biological target: anti-BACE1 hIgG1 Q5 (M252Y / Q311I / N434Y / Y436I) (human)
[7] = biological target: anti-BACE1 hIgG1 Q7 (M252Y / Q311A / N434Y / Y436I) (human)
M252F mIgG2a (mouse) = biological target: M252F mIgG2a (mouse)
M252Y mIgG2a (mouse) = biological target: M252Y mIgG2a (mouse)
[8] = biological target: M252Y.Q309T mIgG2a (mouse)

pKd [1]: 8.05
Substance: cynomolgus monkey FcRn (from UniProt Q8SPV9 24-365) (receptor)

pKd [2]: 8.22
pKd [3]: 6.60
pKd [4]: 6.48
pKd [5]: 6.90
pKd [6]: 6.60
pKd [7]: 8.22
Substance: human neonatal Fc receptor (hFcRn) (from UniProt P55899 24-365; P61769 21-119)

pKd (M252F mIgG2a (mouse)): 5.48
pKd (M252Y mIgG2a (mouse)): 6.08
pKd [8]: 6.51
Substance: mouse FcRn (from UniProt Q61559 22-365) (receptor)

From PMC12049489
